Experimental data: US20240069022A1 (ASAHI KASEI, published 2024)

T1: ribosome protein L7/L12 of Bacillus subtilis, native, in bacterial lysate (Bacillus subtilis, UniProt P02394 2-123)
T1 construct: also called BS; B. subtilis lysate
T1 sequence: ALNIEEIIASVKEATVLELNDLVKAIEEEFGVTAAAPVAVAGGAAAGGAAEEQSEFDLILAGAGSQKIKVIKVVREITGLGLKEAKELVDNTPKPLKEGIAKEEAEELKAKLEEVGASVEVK

T2: ribosome protein L7/L12 of Pseudomonas aeruginosa, native, in bacterial lysate (Pseudomonas aeruginosa, UniProt Q9HWC8 1-122)
T2 construct: also called PA; P. aeruginosa lysate
T2 sequence: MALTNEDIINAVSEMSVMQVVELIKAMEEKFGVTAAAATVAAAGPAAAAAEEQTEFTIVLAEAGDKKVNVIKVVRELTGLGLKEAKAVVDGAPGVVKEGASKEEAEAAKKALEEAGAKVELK

T3: recombinant ribosomal protein L7/L12 of Pseudomonas aeruginosa, tag fusion protein (Pseudomonas aeruginosa, UniProt Q9HWC8 1-122)
T3 sequence: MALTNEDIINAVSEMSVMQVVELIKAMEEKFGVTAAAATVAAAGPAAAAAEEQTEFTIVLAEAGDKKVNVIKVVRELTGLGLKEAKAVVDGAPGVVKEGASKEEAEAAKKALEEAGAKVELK

T4: recombinant ribosomal protein L7/L12 of Bacillus subtilis, tag fusion protein (Bacillus subtilis, UniProt P02394 1-123)
T4 sequence: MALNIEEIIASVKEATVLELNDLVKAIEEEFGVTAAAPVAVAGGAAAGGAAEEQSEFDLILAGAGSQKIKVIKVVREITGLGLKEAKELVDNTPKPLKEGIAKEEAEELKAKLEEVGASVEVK

B1: Specific Antibody C (EC162A3) (antibody, V domains shown)
VH: QVQLQQSGTELAKPGASVQMSCKASGYTFTSYWMHWVKQRPGQGLEWIGYINPNTGYTEYNQQFKDKATLTADKSSSTAYMQLSSLTSEDSAVYYCANYFAWFGYWGQGTLVTVSA
VL: DIKMTQSPSSMYASLGERVTVTCKASQDIYSYLNWFQQKPGKSPKTLIYRANRLVDGVPSRFSGSGSGQEYSLTISSLEHEDMGIYYCLQHDQHPYTFGSGTKLEIK
B2: Specific Antibody B (EC149C3) (antibody, V domains shown)
VH: QVQLQQSGAELVKPGASVKLSCKASDYTFTNFYIYWVKQRPGQGLEWIGEINPSNGYTTFNVKFKSKATLTVDKSSSTAYMQLSSLTSEDSAVYYCTRNYGGSRCAYWGQGTLVTVSA
VL: DVLMTQTPLSLPVSLGDQASISCRSSQSIVHSNGNTYLEWYLQKPGQSPKLLIYKVSNRFSGVPDRFSGSGSGTDFTLKISRVEAEDLGVYYCFQGSHVPWTFGGGTKLEIK
B3: Generic Antibody A (PA51B2) (antibody, V domains shown)
VH: QVQLQQPGSVLVRPGASVKLSCKPSGYTFTGSWMHWTKQRPGQGLEWIGEIHPYSGNTNYNEKFRVKATLTVDTSSSTTYVDLSSLTSDDSAVYYCASGDFDAGFTYWGQGTLVTVSA
VL: DIVLTQSPASLAVSLGRRATISCKASQSVDYDGDSYMNWYQQKPGQPPKLLIYVASNLESGIPARFSGSGSGTDFTLNIHPVEEEDAATYYCQQTNEDPFTFGAGTKLELK
B4: Specific Antibody A (EC50C1) (antibody, V domains shown)
VH: QVQLQQSGAELAKPGASVKMSCKASGYTFTSYWMNWVKQRPGQGLEWIGYINPNTGYTEYDQKFKDKATLTADKSSSTAYMQLSSLTSEDSAVYYCARYWAYFEYWGQGTTLTVSS
VL: DIKMTQSPSSMYASLGERVTITCKASQDINSYLSWFQQKPGKSPKTLIYRANRLVDGVPSRFSGSGSGQDYSLTISSLEYEDMGIYYCLQYDEFRTFGGGTKLEIK
B5: Generic Antibody B (CP141A190.1) (antibody, V domains shown)
VH: QVQLQQPGAELVKPGASVKLSCKTSGYNFTSNWIHWVKQRPGQGLEWIGEINPSNGRANYNEKFKNKATLTVDKSSSTAFMHLSSLTSEDSAVYFCSRGDFDEGFTYWGQGTLVTVSA
VL: QIVLTQSPAIMSASLGERVTMTCTASSNVNSDYLHWYQQKPGSSPRLWIYTTSNLASGVPTRFSGNGSGTSYSLTISSMEAEDAATYYCHQYHRSPRTFGGGTKLEIK

Assays:
[1] = molecular target: recombinant ribosomal protein L7/L12 of Escherichia coli, tag fusion protein (Escherichia coli, UniProt P0A7K2 1-121); assay: ELISA, recombinant L7/L12 coated, antibody 10 ug/mL; +: A450 >=0.3
Excerpt: (§1) The thus-produced Specific Antibodies A to C (antibodies of the present invention) and Generic Antibodies A and B were used to obtain data on the reactivity with ribosome protein L7/L12 of plural genera of Enterobacteriaceae bacteria by means of ELISA. Seven species of Enterobacteriaceae bacteria were selected for the study: Escherichia coli (EC), Klebsiella pneumoniae (KP), Citrobacter freundii (CF), Enterobacter cloacae (ECL), Proteus mirabilis (PM), Salmonella enterica (SE), and Serratia liquefaciens (SL), which are frequently detected in food, beverage, environmental, or biological samples. Four species of bacteria other than Enterobacteriaceae (non-Enterobacteriaceae bacteria) were also selected for the study: Pseudomonas aeruginosa (PA), Staphylococcus aureus (SA), Bacillus subtilis (BS), and Enterococcus faecalis (EF), which are frequently detected in food, beverage, environmental, or biological samples. E. coli transformed with expression vectors incorporating DNA encoding the amino acid sequence of ribosomal protein L7/L12 of each of the above seven Enterobacteriaceae and four non-Enterobacteriaceae species were cultured using, e.g., LB medium, and the ribosomal protein L7/L12 was purified as a fusion protein by affinity columns using tag sequences derived from the expression vector.
(§2) 50 μL of 10 ng/mL solution of the ribosomal protein L7/L12 of each bacterial species was dropped into each well of a 96-well polystyrene plate for ELISA and solidified on the bottom of the plate. After washing each well three times with PBS-T (PBS with Tween 20), blocking treatment was performed with PBS containing 1% BSA (Bovine Serum Albumin). After blocking, the wells were washed three times with PBS-T, and 50 µL of 10 μg/mL solution of each of the Specific Antibodies A to C and Generic Antibodies A and B was dropped into each well for 1 hour for antigen-antibody reactions. After the reactions, the samples were washed three times with PBS-T, and then 0.5 μg/mL of HRP (Horse Radish Peroxidase) labeled secondary antibody (Goat Anti-mouse IgG: Goat Anti-mouse IgG), which is the enzyme for detection, was added dropwise. After the reaction, the wells were washed five times with PBS-T, and 100 μL of a mixture of tetramethylbenzidine (TMB) and hydrogen peroxide, the chromogenic substrate, was added dropwise to each well for the chromogenic reaction.

[2] = molecular target: T1, ribosome protein L7/L12 of Bacillus …; assay: ELISA, bacterial lysate coated
Excerpt: (§3) The thus-produced Specific Antibodies A to C (antibodies of the present invention) and Generic Antibodies A and B were used to obtain data on the reactivity with plural genera of Enterobacteriaceae bacteria and bacteria other than Enterobacteriaceae (non-Enterobacteriaceae bacteria) by means of ELISA. […] The seven species of Enterobacteriaceae bacteria and four species of non-Enterobacteriaceae bacteria described above were purchased and cultured from ATCC, prepared at 1×e⁸ cfu/mL each, and suspended in PBS. Each bacterium was lysed by sonication, and debris was removed by filtration through a filter with a 0.45-μm mesh opening to obtain the bacterial lysate of each bacterium.
(§4) 50 μL of the above bacterial lysate was dropped into each well of a 96-well polystyrene plate for ELISA and solidified on the bottom of the plate. After washing each well three times with PBS-T (PBS with Tween 20), blocking treatment was performed with PBS containing 1% BSA (Bovine Serum Albumin). After blocking, the wells were washed three times with PBS-T, and 50 μL of 10 μg/mL solution of each of the Specific Antibodies A to C and Generic Antibodies A and B was dropped into each well for 1 hour for antigen-antibody reactions. After the reactions, the samples were washed three times with PBS-T, and then 0.5 μg/mL of HRP (Horse Radish Peroxidase) labeled secondary antibody (Goat Anti-mouse IgG: Goat Anti-mouse IgG), which is the enzyme for detection, was added dropwise. After the reaction, the wells were washed five times with PBS-T, and 100 μL of a mixture of tetramethylbenzidine (TMB) and hydrogen peroxide, the chromogenic substrate, was added dropwise to each well for the chromogenic reaction.

[3] = molecular target: T2, ribosome protein L7/L12 of Pseudomonas …; assay: ELISA, bacterial lysate coated
Excerpt: as §3, §4

[4] = molecular target: T3, recombinant ribosomal protein L7/L12 of …; assay: ELISA, recombinant L7/L12 (10 ng/mL) coated
Excerpt: as §1, §2

[5] = molecular target: T4, recombinant ribosomal protein L7/L12 of …; assay: ELISA, recombinant L7/L12 (10 ng/mL) coated
Excerpt: as §1, §2

[6] = molecular target: T1, ribosome protein L7/L12 of Bacillus …; assay: lateral-flow sandwich kit (a) on lysate; capture Specific Antibody A, gold-labelled detection Generic Antibody A

recombinant ribosomal protein L7/L12 of Escherichia coli, tag fusion protein, sequence (P0A7K2 whole entry, the tested form may be a part): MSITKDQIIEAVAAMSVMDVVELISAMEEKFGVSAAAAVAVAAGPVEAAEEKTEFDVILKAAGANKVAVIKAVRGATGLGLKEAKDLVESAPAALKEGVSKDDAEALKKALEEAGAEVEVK

| Binder | binding result [1] | binding result [2] | binding result [3] | binding result [4] | binding result [5] | binding result [6] |
| --- | --- | --- | --- | --- | --- | --- |
| B1 | binds | no binding (tested: Absorbance <0.3 at 10 ug/mL antibody) | no binding (tested: Absorbance <0.3 at 10 ug/mL antibody) | no binding (tested: Absorbance <0.3 at 10 ug/mL antibody) | no binding (tested: Absorbance <0.3 at 10 ug/mL antibody) |  |
| B2 |  | no binding (tested: Absorbance <0.3 at 10 ug/mL antibody) | no binding (tested: Absorbance <0.3 at 10 ug/mL antibody) | no binding (tested: Absorbance <0.3 at 10 ug/mL antibody) | no binding (tested: Absorbance <0.3 at 10 ug/mL antibody) |  |
| B3 | binds |  |  |  |  |  |
| B4 | binds |  | no binding (tested: Absorbance <0.3 at 10 ug/mL antibody) | no binding (tested: Absorbance <0.3 at 10 ug/mL antibody) | no binding (tested: Absorbance <0.3 at 10 ug/mL antibody) | no binding (tested: Visually negative) |
| B5 | binds |  |  |  |  |  |
